Columns and labels:
[1] = test system: myc-tagged CHO cell-expressed CTHRC1
[2] = test system: His-tagged CTHRC1 expressed in Chinese hamster ovary cells (CHO)

| Substance | cleavage of CTHRC1 (immunoblot after digestion) [1] | further results |
| --- | --- | --- |
| MMP-7 | MMP-7 and thrombin do not cleave CTHRC1 |  |
| highly purified bacterial collagenase (VII, Sigma) |  | cleavage of CTHRC1 (immunoblot after digestion) [2]: highly purified bacterial collagenase (Sigma) (FIG. 30), as well as MMP-1 (FIG. 31) cleave CTHRC1 near the N terminus |
| matrix metalloprotease 1 (MMP-1) |  | cleavage of CTHRC1 (immunoblot after 15 and 60 minutes digest) [1]: MMP-1 (FIG. 31) cleave CTHRC1 near the N terminus |
| thrombin | MMP-7 and thrombin do not cleave CTHRC1 |  |
